The domain aggregation screens of Martell et al. (2025)

Assay: soluble fraction after stress (log2 fold change); higher = more stays soluble; pooled small domains, quantitative proteomics
Conditions: stress: pH 4
Method in brief: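 Values are log2 fold changes, and higher ones mean more of the domain stayed soluble. Each fold change reflects the soluble amount of a domain after acid stress and is taken as a measure of aggregation propensity. The stress was pH 4, applied to pooled custom libraries of small protein domains analysed by high-throughput quantitative proteomics.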

Sequence | soluble fraction (log2)
HMSGTMYATAEVNVRSTYSSDGTIYGTLSKGTAVEITGTTDNGWVRVKYNGTTAYVYADYLSWKAP | 0.144
HMSLSIKINHESVGLRLDQFLQEHYYKQQSRSYVQHAIKEGYILVNGQSVKNGYMLKLDDLIELEAI | -0.166
HMVEVPNVSNLTLEQAENKLIQQGLQVKLEGQGEKVVAQIPQPGAVVNKKSTVILF | 0.0373
HMEDIQPSVIFQNNMIDGFKKFGVSFLQNRRNVNVNTLNGLASAGTYPKWQQLLVNKISYIDMLLSTGG | -0.137
HMLIIDLPDFTNKKLSELQQWADANQITLKIVEKDVSSKPYDTILEQTPAKNKYEKIVKGSTMTVTVNIK | -0.272
HMSVLEHVSGNVRRLRLQAGLSQEALARAASVSRRMLVGIESGDVNVSLSTLDRIAAALGVLFPDLVQAP | -0.392
HMLISDENMLRDLVQAVLDENPKSVSDYKSGKTKAFGFLVGQTMKAVKGQADPMLVNKILTELLN | -0.0698
HMGMNKEHFIIELKIYLKALNPKDQAIILAKYKALFDARVAEGETEEQVAKSLGKPRVIAEEILKEQGIE | ≥ 0.43
HMQDYYTQSDFARYLEDKGIHFPQNKIAVYRKRGKFPKEDLVVAGTPYWSKYTVESFAKHLLEQQN | 0.302
HMAITVPEGATLSDAAVLLKQAGAVRSADAFLTRAKVFGGSTPIKAGEFVIPVQASNKDILAILQGGK | -0.193
HMDANLGEIFKVYEQEIGALTPFVREEMLDAIDHYPRDWILDAIRESAKSNARNWKYTLAILKRWKAEG | -0.507
HMDDVIDVYATYDVSPTNQISNIKLYSDAAHANPVTGEAGKSYNDITEGHPGYQFRWSGTTWVPI | 0.0332
HMVGEPEPIRYSRFLDEMKSGKLDSVVIQGDTILGVRKDKSQFKTVNPETDYSALIGALDKAGVGIEGRA | 0.149
HMSRLMIVTPDGRIMDDVPEFGEVRTTTDVNGRVLVLDRNNVVIGFEMTPREYRREFGRNPF | 0.0337
HMASAAHYEGVKTEGESDNDVITRVLTATGVTAEKDDIFVVKSLIADGKYSYTAYVYDGSVWAAMD | -0.541
HMKTPRKVFTVLIRNTEYDVYDIDGKEHQGYNDTPKTWWLYHSERLPEGMIPPIDSDSWKPYSVGT | -2.19
HMGNPSGLPLPRFASTRSEPINVRVGPGQKYDIAWTYLKSGIPVEIIQEFDTWRKIRDFDGAEGWIHQNLL | -0.398
HMVSEASELTDTINKIGSLAQALVGANKLSKTDLVGIIKKYHTSANYNSITDIGVAKNILAELEAKN | -0.264
HMSRVFSPSELEIRHAQDVFQALEEAKRQGKGAVSLNGKMIDAPIVARAKLVLEAAAAIYGED | -0.202
HMSAPGYRAVYPGMLESERQTAYELLSSSGFDVKINTSSGELEVTTDRYHEARMVMASQNIPK | -1.18
HMKQNVEAVIKERAIEKARAQVKAVSTHMALEAQSLSKEQLEFEIERIAAQIIDKMPSDFWND | -0.819
HMKRIFEKKVVTESLNGLRLDKAAATLFADFSRNELGQWIKDEALLVNGKAKKVKEKVSEGDVLALDVELI | 0.0389
HMTIGIGKSLDFNTSGEKAYRIYNFKGAYVGTFKASDMTSLKNEVQKSNVKAGAYMVRSLDGHVNRLIEIK | ≥ 0.43
HMPATIEGIRLYLSSGLIKGVGEEMASRIVKAFGTDTIRVLDEEPERLLKVRGVGKKSLDRIRTSWAEH | -0.585
HMEVSKETFPAYVAVDSLPVYKSASTSSSKVTTIDFGREVTVVETRGGWAKIQYGSYKGFAEIEGMSKN | -0.0269
HMRQSKMREAILAAVSAQKLEISDLHVWRIGEQRYAAIIGLATTQAESVSALRDSLAQMDKLVHLTIDQ | -1.16

Sequence | soluble fraction (log2)
HMQWGKVRRLPSGRYQASYVHKGTRYTAPETYTVQGRAHGWIESERRLIVTDTWTPPDTRPS | -0.202
HMLDKIRTYIDNSFTGVNETKKVKELKDELFENLKEKYNDQIQDGKTEQEAYNSVISGIGDLSELIESVK | -0.0804
HMRDFTQPQTASIGPRMREALARGTMTVEELREQFRTQEFPHESVRTAFLEELERVAAELGLA | -1.62
HMGGVTVQNRETHVNSTVNVRSEQTTESERVALAYQGDAITQIESYENGWSKVEYKGLSGYVMTEYL | -0.819
HMTTLDTVARQLRDRIREQLDPTGEMSDESLLRTIEEAVYRYSSSGHVLTANEKETVIRRIFHSFR | -0.201
HMRGIPEEVADVAIQWVARLDSNEISDADRAAFFAWLDASPINRWAYNDISESWAKLSILNEMGH | -1.8
HMNTGTTISYSDFRDRVASGTVKEVQISDDRITGVLKNDETFNTVPVGNDSGLTKLLDDNGVTYSGTP | 0.212
HMNERTKIPLRKIEIGQAVYVDTLEKVGTVIDIQGKQFKVDLAGLPITVAARNLFYPLPQEAKP | -0.0254
HMGMAGILDSARMASFIQEKLGYGGGQIRASVMGGHGDDMVPLPRYSTVAGVPLSDVLTQNEIDEMFAQ | -0.259
HMDSATDRVALKELLNTLSARERTIITLRYFSDQTQTQVAKSLGISQVQVSRLENAILQRLRKL | -0.271
HMEKINLIIEEDNNLRLDKVIAMQLQELSRTQIQDMINQGLVLVNQKKEKASYKTKLNDEIEITILD | -0.382
HMFMMVAGHLQIKNEKYYMVLELRTEQGERKTKWIGTGLAVKGNKRRAEAMLEETRTKYLSPV | -0.177
HMEVPFRNAAIFKTRSGDYAIRASYDGVDLGIKPIEKSTARTYFQLTDVKDKESFLNMTARNQYESEIAGI | 0.153
HMAVQEDAGLAREDLPPEVQGLLQEREAARAAKDWGKSDALRRQLQDLGYAIKDTAQGMEIKRT | 0.101
HMDKFTYVVKKEDEQYQIKDILRHNFTFSSRLRKKLKQNNSIFLNGAETVGWATPKEGDIISVRLP | 0.219
HMGDIMLLFKENGKVYFLVGNQYTYVKNPTELSAIKTMMKQAGYDTHEHTNTTQVAYIKRLATE | -0.419
HMQTKSDMVYHRVREDIVNGVFAPGERLLISAVAKQYGVSEIPVREAFRVLSQEGFLKTRPNSGFVVS | -0.294
HMEKVLPFEFERKFKTNHTAWDFFSNQAPPSYRKTVIHWILSAKQEITRISRLEKLIAASEQQKRI | -0.31
HMFGELTPDTAKRFLLTAREQEMASLIAQGLTNKEIAFRLGISEATVRTHIYNLFQKVGVQSRIELLNVLH | -0.162
HMSDTLPRLLWNFQMAKRLDEMNGAEKRRYQLVLIHPQASEKERDYASSFAHQARMLGIEVAIRDS | -0.139
HMAAAQILRAAVLRVPAEETMRFVTETPELRRYLGASLGPTAAIVRPGQEQNLAAALQSHGILVEFDE | 0.106
HMPQISQDDLMEAGLIVGKEAKQRRIKLGEILGIGYVNAKQLPKRLQLFQVAKSDFEQAVQQIDG | 0.134
HMTNADRFIGEEAMVIKKIDDINNDGQVKIAGQVWSAVSEDKSPLEEGTIVKVIAIRGVKLVVEPVS | 0.0967
HMKTFQSYQTTSMSNVNLRKRANGTSTILKRIKVGDTVTVVGKSGNYYQIQFDGKEGYALIKYIDGTDSGA | -0.107
HMTKDEIIIQSIIDAAKKLMQQYGLNKTTMEDIAKEAGKGKSTLYHYFKSKEEIFDQVINQEID | -1.06
HMSAVVAPLPGLIQNILVKVGDTVHAGQHVLTMEAMKMENEIQTNRDGIIKDIKVRIGDSVNEGDTLIIL | -0.311

Sequence | soluble fraction (log2)
HMSDQIQQIAERIAGLRDIAGYSVEELARELGISAEEYKRYESGEVDIPIGFLYKLANKYNVELTAILT | -1.02
HMAVQAESDIIKRAALLRNLGNTSMQLKNIDQAIDFYKQGIKLHPEDAELKYNLSQALRQKSQSNN | 0.186
HMKHFTYEEMELMSIYDPGTREGLIANLEEMRGYLEPDETELRELTDSALEKLRELSDADYEQLELI | -1.48
HMTKRTVKSVARKIADFNRERHRMPTYEEMLTLLAVRSKSVVHFWMNKLLQEGILEKDESGHLTFV | 0.14
HMKSSTEIIYSDFLREVSNGQISEVTIQGDFVRGLFLSGSSFQTYAPKDSNLINILRDKKVRIKVHPP | -0.11
HMANPEFAGYINGKPYFGPTHQHRGVKMLGATHTRNPHPLVWDSIAESLANYDSRFRWSGGQIL | -0.203
HMHGYLSDPAARLIRARRKTLSIRITQEGNLEIRAPLGMPKGEIEAFLKEKAQWIETHRAKVLAEYA | -0.138
HMIELTTDYKKRVVEALVSARENYSGSDSDFARKWSIDKTVYSRLKKGYQEGLLSVGKYIELGMELNVSSR | 0.0127
HMYIENIGDYLKSHDIKPSYQRIKVFEYLMQHKNHPTVDMIYKSLVDEIPTLSKTTVYNTLNLFIEKQI | 0.0963
HMIIMVNLYQIWDKEVQGLDSVGAKPEQIEARRQAIAAHFESKARQAGMSSKDIYATLDNFDTYSRQKTS | -1.3
HMKTGNPYAQRNTADMYNYGRGIEKDSYLAFVWYFAAYKQGNDNAKPQIDSITASGHLSPNQQLHAKIE | -0.304
HMDEWKRKELWDAIARLPKIQRMVVTMRTTENLPYKEIAKIMNISENSAKVNYHHAVEALKIFF | 0.0454
HMVNYKEILRLAHEGYSQRQIATNIGNSRNTVSEVLDAAKAANIAWPPEETVTNEQLGAILFPNRH | ≥ 0.43
HMTIGKRIKRRRIELKMSIDSLARTIGKDRSTVYRYESGAIDKVSSDVLAKLATALNTTPAYLIGL | 0.22
HMEDINAVLAENLRRLRESRRLSLDAVARLTGVSKSMLGQIERGEVNPTVSTMWKIAGGLKVNFTALFRRE | ≥ 0.43
HMPIKYTHKGYTINVSRSKMNGTTFVKVVDPKGQVIQQSQDNRIQDVNQLVTTMKQYIDTLKPS | -0.0336
HMSPSLVEAMRLRMYEMGLNQAKLSELLGVSPSRVSDYLTGRSEPTLKVARDISRKLNIDASIVLG | -0.0682
HMDMSVDQFNQGIRGSELYQQFIHGRGLQQPDGKTREWTDADRNAWRRTLEASGVRIPDGMKIDNAGNLNE | -0.052
HMSLSEYLSAPVLEGQRNHALFSAVMQAREQGWDEWQIRTTIGAKAEADGLRHAEIAATIRSAMSREITP | -0.0425
HMLENYEGFKQKILKLTGIDLSSYKERQMRRRIDSLIHRNNYDDYDEYFKALTQNSNLYDEFINYLTI | -0.424
HMDSHSAESVRQRIKDMIAAEASKSILSDDTIVENLKSEGIEIARRTVAKYRESLNIPSSIQRRRIARSEA | 0.0843
HMTFENMFIENSGETLDREFLVENLRGISWQSYDRSVDVLVSRLRGKLGETPNNTRFIKTIHGVGYKFIGE | -0.472
HMNETLKQIRINALQYSEKDMATKLGLPLSEYKEIENDKPLNFTLLIRLSQAVGKTIDDLLNAQ | -0.128
HMGGGVSSSLAGNVFKVLLPAGSVVEQGQAVIVLEAMKMETEVNAPKSGSVSSVFVNEGDTVEVGDLLFAI | -0.162
